Measurements: patent US20250281595A1

Target: purified B/Washington/02/2019 HA full ectodomain (wild type) fused with TEV cleavage motif, trimeris (influenza B virus B/Washington/02/2019 (B/Victoria)) (UniProt P22092)
Test: BLI (Octet Red), […], Fab CR9114 at 20 ug/ml; […]

Substance: fAb CR9114
- OCTET CR9114 30° C. response: 0.48 nm
- OCTET Fab CR9114 response: 0.38 nm
